Results published in the DeepSol protein solubility set.

assay: soluble on expression in E. coli; label from the status in PepcDB or PDB records

Sequence	soluble on expression in E. coli
MNYILGTILESKITGVEKAQINRLKLFKQHGISSKCVYVKWNPYSYTYAKQHQIENDVFTMYDYFQKAINYKKTKQVNWIQYWEKSCRYTLKFVENSNDVRIYDEEQFVMYAHFLDKQYHQLNYVNYFDHKRRKVKRELYDGRGFLSCSRILGEGQRIVLENYYTPNGEIVIQKYFDDIKGKNTLTKVILNEDQHQQFFDTEDELVQYFLHQLCKNNDQIILDRPHELGNVIAGLNQSIPVIVVLHSTHLSGAGNGIKSFYKTVFNNLTRYKAIVVSTEKQCQDISQYIENKIPVINIPVGYVANLKYQFDINQKEKNHIISIARLVENKQIKHQIEVIKQLVTKHPNIQLNIYGHGNGLSEYRQLVEDYHLSEHVKFHGFKTHINEEIAKAELMLSTSKMEGFGLAILESLSVGTPVISYDVDYGPSELIQDGFNGYLVPQGDINQMVEKVDQLLNNTQKLQQFSINSIESAQQYNATTISTKWQNILN	not soluble
MSLSRGAGEAAYRQRLVAVGDLHGDIDNAKKTLQMARIIDDDSKWVASTDILVQTGDIVDRGAYADDIYRLMQSLRGQAASQGGKVVSILGNHEVMNAIGDWRYVTKGDIARFGGTKSRQHALSAEGWLGQEWLANYSTTALVPISPYPSSPTFSFTHGSLRPSYANLTPYPAAINDLGHSLLTKALTPPMAPPYPPNPYSGLPKGTTHEEADLYAEGGPLWWRGLAEREEAQVCEWAKNLKQKIGARRIIGGHTPNFEKIVARCNASVIIIDTGISSAYGGVLSALEIVYTLTPVDRRGRDHSQDPLLLSTSSESIAGLKGRFVEREEVHAIYEHSRKWLALEEREVVLDEGHHHHHH	not soluble
MIIDEKRVQEIKNGETSLGIEFGSTRIKAVLIANDFSILASGSFEWETSLENGVWTYSIDEIWKGLQYSYQKLFAEVKEKYGVVLSKIGSIGFSAMMHGYMAFDNKGELLVPFRTWRNTMTEEAAKKLTDLFKFNIPERWSIAHLYQAILRNEPHVEKIDFLTTLAGYIHWQLTGEKVLGIGDASGMFPIDTQTHNYDKNMLETFKNLPEVKKHSLDLEKLLPKVLLAGENAGVLTLEGAKKLDVSGNLQPGIPLCPPEGDAGTGMVATNSVAPRTGNVSAGTSIFAMVVLEKPLNRVHPEIDIVTTPSGDLVAMVHANNGCSDLEAWVNIFQQFTEAINVDMRKDLLYMALYTQAFQGDPDCGGVLAYNYFAGENITGVSEGRPMVVRKAKSNFNLPNFMRAHLFTSLGALKIGMDILLKDEAVKLDKLLGHGGLFKTPIVGQAAVAGAVNAPVSVMETAGEGGAWGIALLASYLRSKENDSTLPEFLSKNVFAGYVAEEVQPDPKDVKGFEEFIERYKKGIAIEQAAVEHLILEHHHHHH	not soluble
MLKYSNHMAFKDLREYIEFMKKKGKLIEVDDEVSVDLEIAEITRKATYAHLPPLLFKRVKNYENWKIVSNIFYSIESLYEIFGTNKLESISEGFLSNLSNMPITFFDKIKSLREILGLGKVMPKAKSPSFKEEKNLDLTKIPAIKTWPKDAGRYLTFSITITKDPETDVHNLSVYRVQILNEKEAIIHWQAFKRGALTAKKYLEKGISKIPIAVVTGVDPAIAFTAASPVPHGIDKYMFAGILRGEGIDVAELDNQLLVPSHSEVVLTGYVDLNDMRLEGPFGDHMGYYTPADYYPVFKLERVYIREDPIFHVTSVGKPPLEDAWIGKAVERIFLPFAKMLVPELIDMNLPEYGLFTGIGIFSIKKYYPGQAKRVMMALWGTGQLSLLKIIIVVDQDIDVHDINQVIYAIAANVDPKRDVWVIENALTDSLDPSVPFPPLGSKLGIDATRKFKEEMGKEWPEEVRSDEVVAKKADQILNKIIKRYQTSLEHHHHHH	not soluble
MGSDKIHHHHHHNEKGGGTGSSSVGADTEPSVTGVHWTVDSVTVNGTTHQAPDGAHVEIAEDGRATGNYGCNSFHSTATFKGDRITLSRTLSTEMACEKRPMEFETTLARALAAGPLTAEAGQGKLTLTTAKGDRVHLTEEKDAPLYGTKWTVNSLIGGDVAQSLPAAADGKAWLTFTKKSESGDKKSGEKERGDKEVGTVSGSLGCNRVSAMATVRGSHITLGAPRTTRQMCSGSLMTTEKSLLKLFDSTVSYRIDHRAITLTSENGEGIGAIADR	not soluble
MNLEHHSNHYQPTCSIEALQARAKLYQTIRTFFAERGVLEVETPIISQAGVTDVHLASVKALRHIEGKERTQYLQTSPEFAMKRLLASGSGPIYQLCKVFRDDEHGRKHNSEFTMLEWYRPEFDLKDLMHETADLLETCLKQRFDEIRPMILSYKHAFQDRLEINPLQATLKQLKDTADRVGLNLDLGNDRLAYIDLLFSHIVEPSLGFDTPVFLTDFPPEMASLAKVRIDEDGEEVAARFEVYIEGLELANAYDELLDANILRARFEADNLERKLQGLAEMPLDENLLAALPHMPACAGIALGVDRLLMIATRQLKIEQVIAFPAAIA	not soluble
MGSDKIHHHHHHMFNSEIKEKYLDTLSEGMVMQMRPIFAKAEITETLYNKDIYDFTSMQILELIRSFDQTTIGSVRRTLALLSLYIDWAISYKLSKGLTNLARTISEEELYECLGDKKLYITYSELEEMENQLVNYQSKAVLRLLFEEVSGLAHSELLSLTKKQVEDAMLNGNVLTLYDSKHGERKLKVSSECLVIALNAAQETKYKLKNGKAKGQTKEVFLVENDYVVKTKRTSNKGDGQASKFVITNLITDISEFFKINFLTPNTIVRSGHLYRAYQLYKEKGVIDNSVRYQIIDDFNLRVKSKYRAVYSMQDYINEEEVNKYYAEELGLKETTI	not soluble
MGKEMASEYELGQVRLGEFQLYTNGEELYRKLFEDINDAEKYIYIHFYIVGKDEISQEFLQLLEKKASSGVEVKLSVDRIGGYKLKKKVISRLKENGVKFTFSKKPKLKNVFYSLHQRNHRRIVTIDGKVSYVGGFNIGKEYLGQNPKFGPWRDYHVRIHGEGAADMERKFAEDWKEDTGEKMPIHESIPTLGNVKYQYLFSNGKGLWEKYGALLKKAKKSLIIATPYFVPSKEMVKELKAALNRGVNVKILVPFKSDAILLKQAAYPYLKDMLHAGAEIYQYRNGFFHGKVTIIDGEIVDIGTANFDNRSFYLNCESNCIIYDKTVVDEVWSRLQVDFHKSKRFSEEDFEKISRWDWFLARIANVLASYL	not soluble
MNKGRVTQIMGPVVDVKFDGGKLPEIYNALTVKQSNENGTSINLTFEVALHLGDDTVRTVAMSSTDGLVRGTEVEDTGKAISVPVGDATLGRVFNVLGDAIDLDGEVPADVRRDPIHRQAPAFEELSTKVEILETGIKVVDLLAPYIKGGKIGLFGGAGVGKTVLIQELINNIAQEHGGISVFAGVGERTREGNDLYHEMSDSGVIKKTAMVFGQMNEPPGARQRVALTGLTMAEHFRDEQGQDVLLFIDNIFRFTQAGSEVSALLGRMPSAVGYQPTLATEMGQLQERITSTNKGSITSIQAVYVPADDYTDPAPATTFAHLDATTNLERRLTQMGIYPAVDPLASTSRALSPEIVGEEHYEVARQVQQTLQRYKELQDIIAILGMDELSEEDKLVVHRARRIQFFLSQNFHVAEQFTGQKGSYVPVKETVRGFKEILEGKYDDLPEDAFRLVGGIEEVIENAKKMMA	not soluble
MAEAATPGTTATTSGAGAAAATAAAASPTPIPTVTAPSLGAGGGGGGSDGSGGGWTKQVTCRYFMHGVCKEGDNCRYSHDLSDSPYSVVCKYFQRGYCIYGDRCRYEHSKPLKQEEATATELTTKSSLAASSSLSSIVGPLVEMNTGEAESRNSNFATVGAGSEDWVNAIEFVPGQPYCGRTAPSCTEAPLQGSVTKEESEKEQTAVETKKQLCPYAAVGECRYGENCVYLHGDSCDMCGLQLLHPMDAAQRSQHIKSCIEAHEKDMELSFAVQRSKDMVCGICMEVVYEKANPSERRFGILSNCNHTYCLKCIRKWRSAKQFESKIIKSCPECRITSNFVIPSEYWVEEKEEKQKLILKYKEAMSNKACRYFDEGRGSCPFGGNCFYKHAYPDGRREEPQRQKVGTSSRYRAQRRNHFWELIEERENSNPFDNDEEEVVTFELGEMLLMLLAAGGDDELTDSEDEWDLFHDELEDFYDLDL	soluble
MASNQQDVVKELNQQVANWTVAYTKLHNFHWYVKGPNFFSLHVKFEELYNEASQYVDELAERILAVGGNPVGTLTECLEQSIVKEAAKGYSAEQMVEELSQDFTNISKQLENAIEIAGNAGDDVSEDMFIGMQTSVDKHNWMFKSYLSLEHHHHHH	soluble
TVAYIAIGSNLASPLEQVNAALKALGDIPESHILTVSSFYRTPPLGPQDQPDYLNAAVALETSLAPEELLNHTQRIELQQGRVRKAERWGPRTLDLDIMLFGNEVINTERLTVPHYDMKNRGFMLWPLFEIAPELVFPDGEMLRQILHTRAFDKLNKW	soluble
MMAEFETVNDVKQLNGLALAYIGDAVYEVYVRRHLLAGGSVRPHELHRRAVRYVSARAQARVILALLDEGVLTEEEKDIVRRGRNAKSGTIPKNTDVQTYRHSTAFEALIGYHFLVNNEKRVDELIGRSFAIIEREERALE	not soluble
MIKYSIRGENLEVTEAIRDYVVSKLEKIEKYFQPEQELDARINLKVYREKTAKVEVTIPLGSITLRAEDVSQDMYGSIDLVTDKIERQIRKNKTKIERKNKNKVATGQLFTDALVEDSNIVQSKVVRSKQIDLKPMDLEEAILQMDLLGHDFFIYVDVEDQTTNVIYRREDGEIGLLEVKESAAALEHHHHHH	soluble
MAHHHHHHMRAVQLVQGRARMCCVPFLFWVCPPPHLFSLSLPTPSLRSCGARTSCVAERSHASRRGGCGLPSPLPAQPTSPPDTRTGDTCICAFSFTPDEVSQTMTDRCYRTLGLDRGAAEADIKRAYRRKALLFHPDRNPNGAEAFKALQGDYEEALTDARRRGARGGGVPPFSSMASPSWDPAAPAAGAAYRFARAAGTACPPFFPEPSPAPLFTDEELFADSIPGGWRDVCARRGASARGGDKAGGRNNAAGRTEEINGSNSCCSQEAAAADARWRRAHGARVPVSAYTFSGPVPPPPPLPSQPSPHLSSSSFTSFCTHTRARASVAGTGSRLSTQAQRNRFVSRECMWKSSSAEALSLDAKQEAGGAGKVGRSRGCDGYTGQNREPVCGSDTGESAEDRVYREAVLLQRRMPALSGKSRGAAAERTRTHSQSDRAFSTEGVPVGSNATFPATRGVYHQRSDLHTSSTTTTTTTSSSTKGERLEAALSQREALCRQCRDTETTLQHEVDDDHAPAFSDDGDASAHPDKGDGAGSTNAALGPSAAGPLAASGRDTSRAGDPFPVKQSACPESNSDDRLRGDLPHRDRIPDECPLLQSENPRGRYTPNPAEVAEMSDMEVYLLASVAEDINQKTQTVMTARLSKEPYSCSASTPRAHQHVYFTCTHPSACEDCYASGVSKCPLCGASGVDRSSPPPSATTTSSSIEKGGTTGASGACTGTRASLASSSAPSPETMYEPVRVHSVLTCGDADA	not soluble
MWVDGMAKVVEVGRICVKTRGREAGRKCVIVDIIDENFVLVTGPKSLTGVRRRRVNIDHIEILDKKVDIQKGASDEEVLKALEEAGLADFMREPVRIARITPFTLLEHHHHHH	not soluble
MAEIIFNLSADDEGIGKHNYLCSLISQQSARCISGYVFSSSGFGESTTDVVFAGNGLIYENGYLLARSERFCMEEQLIINEIDVECIRAERRVNTTFAANKANCPGKEAVRISTEFVNSKDLNLTRTFNPHPFVPQGNELNSRLEHHHHHH	not soluble
MSSAHNAYNAGIMQKTGKAFADEFFAEENQVVHESNAVVLVLMKSDEIDAIIEDIVLKGGKAKNPSIVVEDKAGFWWIKADGAIEIDAAEAGELLGKPFSVYDLLINVSSTVGRAYTLGTKFTITSELMGLDRALTDI	soluble
MGSDKIHHHHHHSCEKDPDLSKLDNNFTVYTNYDSKTNFNDFKTYCLPDSILLIGQGMKAEFWKDENAQEIIKQVADEMDTRGYTRVKVIKNANIGLQLSFTRQTTQIIGTGGWYGGGWYNGWWGPGYWGPYWNDWYYPYPVTYSYNTGTLIMEMVNLTDHPEDTSQKVKLPVIWHSYATGLLFENSKYNMQLTLDAVNQAFDQSPYIKKS	not soluble
